Reference: the DeepSol protein solubility set

Test: soluble on expression in E. coli; label from the status in PepcDB or PDB records

Sequence	soluble on expression in E. coli
MHSQQRPNPQMNRHPYGTPGSAPQMRRPGGFAGQPPQMHGPRMVAPPAAPLPKKKKYADKCIHPKIRELEPDAENYMALLASEQKLDSTLSRKKLDIQEALKRPSKVKKRLRIYISHTFIEEKQPEKDTDEASLPMWELRVEGRLLDEQPPAPAIPGQRPVPKRKFSSFFKSLVIELDKEMYGPDQHLVEWHRTPQTNETDGFQVKRAGDRPVKCRILLLLDNHPAKFKLHPRLAKVLGIATETRPKIIEALWQYIKTHGLQDPQERDIINCDTFLSQCFGVNRMRFMEVPNKLHQLLQQTDPLEFNHIIQRPKEGQEQVSTCYDIDVEMEDPVKQFMHTFVHSPGLANDIQTLDQKCYDIIEQINELKTRRDFYARFYTEPAEFIKSWVMSQNSDLKTMNELSGDLEAERFAESYVRPETEEGVQRYMFQKVNQKRHELEQSLGVRSN	not soluble
MHTDMKSVGTVSMQEAPLLEIAVVGHTNTGKTSLIRTLLRSTSFGRVDDAAGTTRHVERATIFAGSEAVLNLHDTPGIEDVYALQDKLHLIATRNKRSTQSELLEKFVAATPLNDPLEQEAKVIRQVLRSDVLLYVIDVREPVLEKYLIEIEILGKAMKPMIPIFNFTAAHRAELDLWRKKLAAFNIYASLELDTVAFAFEAEKRLYQKIQSLLEVHYTRLQRLIDHRARVWNQLCMSAARRIAGLIITTACYREHTGDERSSAGDTSSAAIRLQDFIRQAEQHCLVDLLKMFNFTDKDIELQKIPVQNGYWQLDLFAPGVLKAYGLDIGSAALKGAAAGAGIDLMTGGLSLGVASMLGALAGTGWSTFRRYGKEIQAKIRGTRWLCVDDSTLQLLYLRQRQLLDKLMNRGHAACHTDQVSQQPERGELPDGWQQIIDMLRQNPAWGRSPGLHTDDTRQYSSIEKRLIDALLKNPAL	not soluble
MHTFYLPFILSLSMPPKKKSSKTIYKFPQSFHDLPKSLSKNYYQPEPESIINDQIIIIKNFFNKDLCNELIKSFETQLNMETTPLIKSKEYAARFNDRSSMNDLLSANILWQYLQKILLDNPYNDEDLKEINQIFQDAVGLNPQLRVYRYTRGHHFGKHYDDSVICPIPPQGTKKGYTTWTLLIYLTGDEEFKGGGTIFYPEIKNIKPLNIHPNKGMALLHKHGDDCLKHEAEMVANGAKWVLRSDVVFPI	soluble
MHTQYFPNRRPGRIQPLGIQQNTIYVYVKVKHVLEFYAIDIRLPYHWHQIAKLNISEMSYTFSTLSPDFRYIYVLFLRVAREMATFAVQRFDLENNGTADLFLLNAAEELYRVFEVPLDSVTLRCDSGGQLVLYDRSIVQGEIPFWTIRLEESTKTFRILKNSIPTAGDDTERNSALFTIAVDPVNRCFAKLMSPRTMLVYTEERKRWVEYHIPVEQSLQDIFGSDGFPVEEIRGIRETFGTHGHRMGALQTRLTFHDLNDVLVARCLHLHWNTTATVEFDHVNREIQVRLLAKFPLDDEVTRMFYLIASKEHHVFLGVYDTAIVHIKSPKLEEIVGWRMQKMLMRDGHKDEVLQISNYRQLLALALTKYADKDEDLAENLKNLGIEPPRKKLVVMEIELD	not soluble
MHTSLMSYNQNMIPSGDDRPVFPTIDLFANTSLEELQQSLCAAVANYRDFLTRKILPFQQSWVVRVLSESGLDEETLRAIKSCVFTPCCSIPGAVQPDRICQHDSPIYIYTSLNLLSQYVEGKTLLRCYRKFVLASSLPPYRTDIPAEELKNVLNSILPGAYSMPHAVSCFVAILPSKKFTISMSKITTRGGAEEHFVVFSREENDIIPYDIVAVGKTLFSQSDEEFGLPNLSFDELQNLISTLEHHHHHH	not soluble
MHYVTPDLCDAYPELVQVVEPMFSNFGGRDSFGGEIVTIKCFEDNSLVKEQVDKDGKGKVLVVDGGGSLRRALLGDMLAEKAAKNGWEGIVVYGCIRDVDVIAQTDLGVQALASHPLKTDKRGIGDLNVAVTFGGVTFRPGEFVYADNNGIIVSPQALKMPELEHHHHHH	soluble
MIAARQVSKPIADAVLRYGKDHPVFRNKLLLPIGRGLVRFTSRLRMKRLGLGEPISQAPISESAALEQASDFVQQLVLFSYSVGVFAGYYFYTKMTTPESLKIEDYEEFKQQQERAIKELRLQVESLEQRLAAQQKRNFFSQLGFSKENGDESPPKPSQQAPPPEKPSEEKKPATESLKQRFQRISSLPIDAAASLILDDEEYLVVRRGSSVGIELSVNFAARGDRLRYRIPSPKLRESCAQMALKEAACHVIGAKDRSRFRYVNS	not soluble
MIALFSVLIAFLTPQANAVISGELNCTTYNGTAFVYTPSATACSNAISDSSCAALYPASDPATGYPAPGNDVERPFACYTTATPTPAPVVPDMRSAALKNCARTCGLCCKTADFDCPNVQFPRLTCSTITNEQCRSSVWRTIIATDCPSACGFCNQGGCVDGVMDCANDLSICNSVGMQEFVNQYCQRTCNRCSSSTAATGTGGSCGGRYIADSSTACAAWKLNGFCTNTFYTAAQRRSYCATTCSLC	not soluble
MIAMDIREIGLRLVGEAIKAADPYRAVLNAVKVSDDKIIVQGKEFEIKGKVYVIALGKAACEMARAIEDILDVEDGVAVTKYGYGKELKRIKVIEAGHPIPDEKSILGAKEALSILNRARENDIVFILISGGGSALFELPEEGISLEDLKLTTDLLLKSGAKIHEINTVRKHISKVKGGKLAKMIKGTGIVLIISDVVGDNLEAIASGPTVKDPTTFEDAKRILELYDIWEKVPESVRLHIERGLRGEVEETLKEDLPNVHNFLIASNSISCEAIAREAQRLGFKAYIMTTTLEGEAKDAGLFIGSIVQEIAERGRPFEPPVVLVFGGETTVTIEGKGGKGGPNQEIALSATRKISDLEALIVAFDTDGTDGPTDAAGGIVDGTTYKKLREKGIDVEKVLKEHNSYEALKKVGGLLFTGPTGTNVNSIVIAIVTSKRGRT	soluble
MIAQLQKSLIQQNSTFEKKNNVEVAPIAKISLKDRLASLNNSAEQWKSRPERQPAVQQRRTSANVLQDLPIFQRAQQLHQQQQRPQSFPVVQEKPCDITSGLKKFFGSNPTTSGASSSLPKISEITASNDIDLDAISSKATPVLKTVTRPRAPNRKKSDKSSTFDERIRLDAVKIDEEAFAVVEEEPEKLETQEQAIAAIQGAKQLLKSPTKVSPYPDVMLIQVRGSKNVDVRLVAPAMSSVHEVACFVVVHQKHLMKYEGLYSNILEKTKASQLCIEILGKSDLNCTAESIVTVTGASRSTLSKLLFCSENSESSSENNNYHQASSVEPFETTVAKLNLVLRIAGDNTAETCSRRERLSYEIMKPSEVLIFDFGSEIYVWTGRYSNKVSSAYAQEYAKQLMKKPVKNGKFILGDAESIDQDGRPEWTLSRKIHQGVLDTLFKAKFSDWPETREVLTTCKPRALISKKNPEVKTYEDVKVVNQDDEVADLVERMLQEQELDPILVLEDQEIDRKIHDVISEDRSLWVLRGEVLQSIEEFTEHFDSRRCYVLRWKYRIQKSGVRRIKTGKEEERETGRSRIAFWYWLGEHTTPKQHGLCALRIKEIDRDNSPRIRIADGNEPALFLALFDGKFMVSSDISEMKPLRRYVVIGANSRETSLREIDDLNSPLRSHAAYIEVEKDILGPSSVVCGANCTEDQVHFVLAHAEYMRQKAGVKGNSAEIEVEGDKKSRSWVNSNGRKRAMRVWRLFDNESEQVNHLSGHKNCAFTFSQQVLKETILIDVGDALWLWSEEVITTFALKVAEKYWKDRSGPAKVVYKGAEPEQFKGLFMKWEMFEVEDDKPSDPPRDVSDLLKERCRTFSLEELKERTSLPAGMDMRRLESYLTDDDFMKVFKIERSEFYAQKTWKQNDARKRVGLF	not soluble
MIATPNILAPLHDILPLTKGEARISFIGSRSFLLEAPGEFDLPAQRWIWALSQSVSNWPDVAEIIPGMTNLLTIFKETPDDPDSVVGRLRDAWNSAQSLDLTGKTIEIPVHYGGEYATDLAAICDFSGLSDREVVRLHHEATYRVFALGSAPGFGYLHGLDPRIYMPRKTVPSIRMEKGCVTIGGMQTGVAMLTGPNGWNSIGYADLQMFDPESSVPALMAPGDIVRFVPARIELLEHHHHHH	not soluble
MIAVVIPAHNEARRLGRCLRAVLVAARQAQQAGLHVEVLVVLDRCSDGSAAVARRFGVHTLEVDAGNVGMARRVGAAHMVERGATWLACTDADSRVPAHWLLSQLACSAEVVCGTVHVEYWQPWQTAALRKLYQSRYQACEGHRHVHGANLGVCADAYERVGGFQPLAAHEDVQLVSDLQASGAQIVWTARHSVATSSRRDSRAREGFGDYLAGLQAQSLEHHHHHH	not soluble
MICLDCDDLFDTWRLQARWLLSHEIDPSQVSWKSPDAADLFGSEEQYPEQSGPFQARVPLELLQLLQSTSRYRGEQRWSLLYEVLWRVTHGDRTAMMAGDKLGSELHRRLKAVRREAHHLHAFLRFVALPPADNDAAIMRPQYVAWHEPAHDILHSASEHFIGRMGQHRWMIATPQDGVYYDGKQLIHERRCPEAWQTMARQVEDPHGELWLTYYSHIFNPARLNPKVMEGHFPSRFWKNLPE	not soluble
MIDFNQLDDLARRLSDLVPPGLRQSREELQSTFKGALQAGLGKLDLVTREEFDVQRAVLLRTREKLDALEQTVAALEARSGNAPPTSPTP	not soluble
MIDHQHLRLFQFCDSQFPTGAFSHSFGLETYIQRETVHDTETFIKWLHLFINEQLTYSDGIAMRIVYHALINNDKDKILDINQKLFVQNLPKETRIGAKQMGTRMVKLALDLYDSEWIQWYYNQMKNNKIKLHPAVCFTMLGHFLGVDVESIIDYYLYQNISSLTQNAVRAIPLGQTAGQQVVTEMIAHIEKTRNHILELDEIDFGMTAPGLELNQMEHENVHVRIFISLEHHHHHH	not soluble
MIDLLQADGNALPSAVKLAYSPASKTFESYRVMTQVHTNDATKKVIVKLADTPQLTDVLNSTVQMPISVSWGGQVLSTTAKEFEAAALGYSASGVNGVSSSQELVISAAPKTAGTAPTAGNYSGVVSLVMTLGSDNKQVEKNITVTASVDPVIDLLQADGNALPSAVKLAYSPASKTFESYRVMTQVHTNDATKKVIVKLADTPQLTDVLNSTVQMPISVSWGGQVLSTTAKEFEAAALGYSASGVNGVSSSQELVISAAPKTAGTAPTAGNYSGVVSLVMTLGSDNKQVEKNITVTASVDPVIDLLQADGNALPSAVKLAYSPASKTFESYRVMTQVHTNDATKKVIVKLADTPQLTDVLNSTVQMPISVSWGGQVLSTTAKEFEAAALGYSASGVNGVSSSQELVISAAPKTAGTAPTAGNYSGVVSLVMTLGSDNKQVEKNITVTASVDPVILEHHHHHH	soluble
MIDLYFAPTPNGHKITLFLEEAELDYRLIKVDLGKGGQFRPEFLRISPNNKIPAIVDHSPADGGEPLSLFESGAILLYLAEKTGLFLSHETRERAATLQWLFWQVGGLGPMLGQNHHFNHAAPQTIPYAIERYQVETQRLYHVLNKRLENSPWLGGENYSIADIACWPWVNAWTRQRIDLAMYPAVKNWHERIRSRPATGQALLKAQLGDERSDS	soluble
MIDMALTDDIILLGQVPLFAGFSDDQLRLIAFGAERRRVSAGQILFREHSPAECAFAVTSGHFELFTAGRDGKPLLQATPGKGALLSELALFTLCERKFTAVAVEDSEVIRITRILFHRLVEEFPEVADIVSARIRDNIAALAAGAARLQNRFV	not soluble
MIDMTMKVGFIGLGIMGKPMSKNLLKAGYSLVVADRNPEAIADVIAAGAETASTAKAIAEQCDVIITMLPNSPHVKEVALGENGIIEGAKPGTVLIDMSSIAPLASREISEALKAKGIDMLDAPVSGGEPKAIDGTLSVMVGGDKAIFDKYYDLMKAMAGSVVHTGEIGAGNVTKLANQVIVALNIAAMSEALTLATKAGVNPDLVYQAIRGGLAGSTVLDAKAPMVMDRNFKPGFRIDLHIKDLANALDTSHGVGAQLPLTAAVMEMMQALRADGLGTADHSALACYYEKLAKVEVTR	not soluble
